60 sequences from the supplement of paper PMC7877785 can be followed below.

The data set is described as follows: self-splicing fitness, log relative to wild type (ln ratio); higher = more splicing; Tetrahymena group I intron in knt gene, E. coli kanamycin selection, DiMSum; sequences stand for … in CUCUCU…GGAGGGAAAAGUUAUCAGGCAUGCACCUGGUAGCUAGUCUUUAAACCAAUAGAUUGCAUCGGUUUAAAAGGCAAGACCGUCAAAUUGCGGGAAAGGGGUCAACAGCCGUUCAGUACCAAGUCUCAGGGGAAACUUUGAGAUGGCCUUGCAAAGGGUAUGGUAAUAAGCUGACGGACAUGGUCCUAACCACGCAGCCAAGUCCUAAGUCAACAGAUCUUCUGUUGAUAUGGAUGCAGUUCACAGACUAAAUGUCGGUCGGGGAAGAUGUAUUCUUCUCAUAAGAUAUAGUCGGACCUCUCCUUAAUGGGAGCUAGCGGAUGAAGUGAUGCAACACUGGAGCCGCUGGGAACUAAUUUGUAUGCGAAAGUAUAUUGAUUAGUUUUGGAGUACUCGUGGUCG
The gist of the method:
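Library with all eight P1ex-region intron nucleotides randomised, intron inside the knt kanamycin-resistance gene on pET-22b(+), in E. coli BL21(DE3). Cells grew overnight at 37°C or 30°C on LB agar with or without 25 μg/mL kanamycin (plus 100 μg/mL carbenicillin, 50 μM IPTG, 0.2% rhamnose), in six replicate transformations. Pooled colonies were amplicon-sequenced on Illumina HiSeq 2500. DiMSum fitness is the error-weighted combination of wild-type-normalised replicate fold changes, kanamycin versus none.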

± gives the uncertainty stated by the source.

For the sequence UAUUAGCAAUAUUACGAUUG, the “self-splicing fitness (ln)” value runs as follows: (30 °C) -1.08 ± 0.089; (37 °C) -0.0341 ± 0.14.

As to AAGGAGCAAUAUUACGUGCG, the “self-splicing fitness (ln)” value reads like this: (30 °C) -2.36 ± 0.19; (37 °C) -2.09 ± 0.23.

CCAAAGCAAUAUUACGCGCU: the “self-splicing fitness (ln)” value (30 °C) was -3.57 ± 0.15 and the “self-splicing fitness (ln)” value (37 °C) is -3.13 ± 0.17.

Consider UACGAGCAAUAUUACGGAUG, for which the “self-splicing fitness (ln)” value by setting is: (30 °C) -2.95 ± 0.43; (37 °C) -1.27 ± 0.34.

For the sequence UAAUAGCAAUAUUACGCAGG, the “self-splicing fitness (ln)” value by setting is: (30 °C) -1.82 ± 0.1; (37 °C) -1.48 ± 0.14.

Consider UACCAGCAAUAUUACGUAGA, for which the “self-splicing fitness (ln)” value reads like this: (30 °C) -1.27 ± 0.072; (37 °C) -0.78 ± 0.091.

AUUUAGCAAUAUUACGGCUC: the “self-splicing fitness (ln)” value (30 °C) was -0.153 ± 0.097 and the “self-splicing fitness (ln)” value (37 °C) was determined as 0.0525 ± 0.11.

Regarding GCCUAGCAAUAUUACGACGA, the “self-splicing fitness (ln)” value is, setting by setting: (30 °C) -1.46 ± 0.14; (37 °C) -0.629 ± 0.13.

With CUUCAGCAAUAUUACGCGUA, the “self-splicing fitness (ln)” value was -2.92 ± 0.18 (30 °C) and -2.46 ± 0.17 (37 °C).

Consider GCGGAGCAAUAUUACGCCCU, for which the “self-splicing fitness (ln)” value (30 °C) is -2.95 ± 0.45.

As for ACGAAGCAAUAUUACGCGGC, the “self-splicing fitness (ln)” value is -2.63 ± 0.35 (30 °C) and -2.22 ± 0.24 (37 °C).

In the case of CACAAGCAAUAUUACGGUUG, the “self-splicing fitness (ln)” value is -2.5 ± 0.1 (30 °C) and -1.59 ± 0.12 (37 °C).

Take AGGGAGCAAUAUUACGCCUA: the “self-splicing fitness (ln)” value (30 °C) is -1.43 ± 0.26 and the “self-splicing fitness (ln)” value (37 °C) was -1.68 ± 0.21.

Regarding AUGGAGCAAUAUUACGUUCU, the “self-splicing fitness (ln)” value is -2.64 ± 0.22 (30 °C) and -3.2 ± 0.4 (37 °C).

Consider AGGAAGCAAUAUUACGAUCG, for which the “self-splicing fitness (ln)” value reads like this: (30 °C) -1.27 ± 0.16; (37 °C) -0.489 ± 0.16.

For CACCAGCAAUAUUACGCUUU, the “self-splicing fitness (ln)” value reads like this: (30 °C) -3.8 ± 0.14; (37 °C) -1.94 ± 0.093.

For AGCCAGCAAUAUUACGACUC, the “self-splicing fitness (ln)” value (30 °C) was -4.9 ± 0.46 and the “self-splicing fitness (ln)” value (37 °C) is -2.49 ± 0.27.

In the case of UCGAAGCAAUAUUACGGGCU, the “self-splicing fitness (ln)” value reads like this: (30 °C) -4.18 ± 0.39; (37 °C) -2.67 ± 0.35.

With CGGAAGCAAUAUUACGGCUG, the “self-splicing fitness (ln)” value reads like this: (30 °C) -1.79 ± 0.094; (37 °C) -1.36 ± 0.099.

AUAAAGCAAUAUUACGUUCU: the “self-splicing fitness (ln)” value reads like this: (30 °C) 0.0113 ± 0.08; (37 °C) 0.404 ± 0.12.

For the sequence GAGAAGCAAUAUUACGCAGU, the “self-splicing fitness (ln)” value (30 °C) is -3.98 ± 0.23 and the “self-splicing fitness (ln)” value (37 °C) is -2.06 ± 0.17.

For GCAGAGCAAUAUUACGGCUA, the “self-splicing fitness (ln)” value is -1.53 ± 0.14 (30 °C) and -0.385 ± 0.11 (37 °C).

With UGCUAGCAAUAUUACGUAUC, the “self-splicing fitness (ln)” value (37 °C) is -2.07 ± 0.38.

For the sequence CAGAAGCAAUAUUACGCGCU, the “self-splicing fitness (ln)” value (30 °C) is -2.62 ± 0.17 and the “self-splicing fitness (ln)” value (37 °C) is -1.92 ± 0.18.

In the case of UGUCAGCAAUAUUACGGAGU, the “self-splicing fitness (ln)” value by setting is: (30 °C) -3.6 ± 0.17; (37 °C) -1.96 ± 0.15.

For the sequence UUUCAGCAAUAUUACGGGGG, the “self-splicing fitness (ln)” value was -2.22 ± 0.15 (30 °C) and -1.45 ± 0.16 (37 °C).

Regarding AAAAAGCAAUAUUACGGCGA, the “self-splicing fitness (ln)” value was -0.0921 ± 0.08 (30 °C) and 0.25 ± 0.12 (37 °C).

On to UACGAGCAAUAUUACGCAUU, for which the “self-splicing fitness (ln)” value was -3.48 ± 0.43 (30 °C) and -2.09 ± 0.46 (37 °C).

For AGGUAGCAAUAUUACGGAGG, the “self-splicing fitness (ln)” value is, setting by setting: (30 °C) -4.103 ± 0.034; (37 °C) -3.11 ± 0.043.

For the sequence CGGGAGCAAUAUUACGUCUA, the “self-splicing fitness (ln)” value is -1.89 ± 0.21 (30 °C) and -1.82 ± 0.21 (37 °C).

As to CUAAAGCAAUAUUACGUGCA, the “self-splicing fitness (ln)” value by setting is: (30 °C) -2.77 ± 0.2; (37 °C) -1.91 ± 0.18.

On to GCACAGCAAUAUUACGAGGC, for which the “self-splicing fitness (ln)” value is, setting by setting: (30 °C) -2.95 ± 0.12; (37 °C) -3.27 ± 0.2.

Regarding GUACAGCAAUAUUACGUGUA, the “self-splicing fitness (ln)” value is, setting by setting: (30 °C) -3.18 ± 0.16; (37 °C) -2.32 ± 0.14.

On to UGCUAGCAAUAUUACGACGA, for which the “self-splicing fitness (ln)” value by setting is: (30 °C) -0.229 ± 0.13; (37 °C) 0.191 ± 0.12.

For the sequence ACCCAGCAAUAUUACGGCAA, the “self-splicing fitness (ln)” value reads like this: (30 °C) -0.219 ± 0.056; (37 °C) -0.263 ± 0.068.

Turning to GCGAAGCAAUAUUACGUAGA, the “self-splicing fitness (ln)” value was -3.57 ± 0.44 (30 °C) and -1.75 ± 0.37 (37 °C).

As to CAUUAGCAAUAUUACGCUAG, the “self-splicing fitness (ln)” value was -2.75 ± 0.28 (30 °C) and -0.852 ± 0.2 (37 °C).

On to CCCAAGCAAUAUUACGAUUA, for which the “self-splicing fitness (ln)” value by setting is: (30 °C) -2.97 ± 0.19; (37 °C) -2.9 ± 0.27.

On to GGUGAGCAAUAUUACGCAUU, for which the “self-splicing fitness (ln)” value is, setting by setting: (30 °C) -1.28 ± 0.25; (37 °C) -1.89 ± 0.34.

Turning to GAACAGCAAUAUUACGGUUG, the “self-splicing fitness (ln)” value (30 °C) was -2 ± 0.1 and the “self-splicing fitness (ln)” value (37 °C) was -0.692 ± 0.12.

With UCGAAGCAAUAUUACGGUCU, the “self-splicing fitness (ln)” value was -2.6 ± 0.14 (30 °C) and -0.844 ± 0.13 (37 °C).

On to UUCAAGCAAUAUUACGCGAC, for which the “self-splicing fitness (ln)” value is -2.61 ± 0.24 (30 °C) and -1.91 ± 0.2 (37 °C).

In the case of AGCAAGCAAUAUUACGUACA, the “self-splicing fitness (ln)” value was -1.22 ± 0.074 (30 °C) and -0.296 ± 0.085 (37 °C).

Consider CUCCAGCAAUAUUACGUGUG, for which the “self-splicing fitness (ln)” value runs as follows: (30 °C) -2.17 ± 0.069; (37 °C) -1.5 ± 0.08.

For the sequence UCUGAGCAAUAUUACGUCAG, the “self-splicing fitness (ln)” value reads like this: (30 °C) -1.48 ± 0.096; (37 °C) -0.513 ± 0.11.

For UUUCAGCAAUAUUACGUCUG, the “self-splicing fitness (ln)” value is, setting by setting: (30 °C) -3.65 ± 0.22; (37 °C) -1.87 ± 0.16.

For the sequence CCCAAGCAAUAUUACGAUAU, the “self-splicing fitness (ln)” value (30 °C) is -3.29 ± 0.19 and the “self-splicing fitness (ln)” value (37 °C) was -3.25 ± 0.15.

Turning to ACCGAGCAAUAUUACGCUUG, the “self-splicing fitness (ln)” value (30 °C) is -3.65 ± 0.21 and the “self-splicing fitness (ln)” value (37 °C) is -2.17 ± 0.26.

On to GCCUAGCAAUAUUACGUGGA, for which the “self-splicing fitness (ln)” value runs as follows: (30 °C) -0.477 ± 0.068; (37 °C) 0.358 ± 0.076.

CAUAAGCAAUAUUACGCGCA: the “self-splicing fitness (ln)” value by setting is: (30 °C) -1.4 ± 0.11; (37 °C) -0.55 ± 0.11.

As to CGCUAGCAAUAUUACGUCGC, the “self-splicing fitness (ln)” value (30 °C) is -2.3 ± 0.33.

AUAUAGCAAUAUUACGUGGU: the “self-splicing fitness (ln)” value was -2.88 ± 0.19 (30 °C) and -1.54 ± 0.29 (37 °C).

Regarding UCCUAGCAAUAUUACGGAGU, the “self-splicing fitness (ln)” value was -3.81 ± 0.22 (30 °C) and -1.3 ± 0.13 (37 °C).

For the sequence GACCAGCAAUAUUACGUCUA, the “self-splicing fitness (ln)” value reads like this: (30 °C) -1.44 ± 0.085; (37 °C) -0.724 ± 0.081.

Turning to UACGAGCAAUAUUACGGCCG, the “self-splicing fitness (ln)” value by setting is: (30 °C) -0.704 ± 0.13; (37 °C) -1.01 ± 0.21.

As for GCCAAGCAAUAUUACGUCGC, the “self-splicing fitness (ln)” value was -2.63 ± 0.14 (30 °C) and -1.23 ± 0.1 (37 °C).

In the case of GAUUAGCAAUAUUACGACUU, the “self-splicing fitness (ln)” value (30 °C) is 0.263 ± 0.12 and the “self-splicing fitness (ln)” value (37 °C) is -0.24 ± 0.12.

Turning to UCACAGCAAUAUUACGCAAA, the “self-splicing fitness (ln)” value runs as follows: (30 °C) -2.74 ± 0.19; (37 °C) -2.91 ± 0.17.

Take ACCCAGCAAUAUUACGAUGU: the “self-splicing fitness (ln)” value is, setting by setting: (30 °C) -0.18 ± 0.041; (37 °C) -0.0583 ± 0.052.

For GAUAAGCAAUAUUACGUAGC, the “self-splicing fitness (ln)” value is, setting by setting: (30 °C) -2.22 ± 0.13; (37 °C) -0.793 ± 0.12.
